Source: publication PMC10229432

What was measured:
[1] = biological target: Epidermal Growth Factor Receptor (EGFR) expressed on the surface of A431 cells (human (endogenous in A431)) (UniProt P00533); assay: on-cell binding assay (cell ELISA, chemiluminescence); as a1, but after the 5 min at 37 °C the plate was irradiated with 365-nm light for 10 min (33 mW per cm2) before washing and fixing; Kd from a sigmoidal nonlinear fit
[2] = biological target: extracellular domain of EGFR (sEGFR) (UniProt P00533); assay: cross-linking; photocrosslinking in PBS, 10-μl reaction: 10 pmol sEGFR (or BSA) with 100 pmol 7D12 mutant (0-200 pmol in Fig. 2d), 5 min at 37 °C, 365-nm light for 10 min; PNGase F; denaturing SDS-PAGE, Coomassie; percent from band intensities

For 7D12-32pcY-109Bpa (VHH), the Kd [1] was 103 nM and the percent crosslinked to EGFR [2] was 33%.
